Experimental data taken from patent US9340788B2 (priority 2007, dated 2016).
Entries after “also recorded” stand apart in the source; their conditions may differ.

B1: PDGFRα siRNA: "smart Pool" siRNA to hPDGFRα (Dharmacon), SEQ ID NO: 1-4 (nucleic acid)
chain 1: CGAGACUCCUGUAACCUUAUU
chain 2: GAGCUUCACCUAUCAAGUUUU
chain 3: GACAGUGGCCAUUAUACUAUU
chain 4: GAAUAGGGAUAGCUUCCUGUU
modifications: pool of four siRNAs, further chemistry not given here
B2: p110α siRNA: mixture of 4 RNAi oligos, "smart pool" from Dharmacon, against PI3K p110α, SEQ ID NO: 5-8 (nucleic acid)
chain 1: GCGAAAUUCUCACACUAUU
chain 2: GUGGUAAAGUUCCCAGAUA
chain 3: GCUUAGAGUUGGAGUUUGA
chain 4: GACCCUAGCCUUAGAUAAA
modifications: pool of four siRNAs, further chemistry not given here

How the values were obtained:
Format in all cases: cell-based, Human cytomegalovirus
HCMV [1] = experiment: Plaque formation assay; conditions: HEL; CMV-GFP MOI of 1; siRNA knockdown at time of infection; counted at 14 dpi
Description: HEL cells transfected with PDGFRα siRNA and control cultures were infected with CMV-GFP (MOI of 1), as described in FIG. 8. Unabsorbed viruses were washed and cells were returned to 37 C. 24 h later, supernatant was harvested and used to infect naïve HEL cultures (6 wells/condition) which were monitored daily for 14 days under the fluorescence microscope for plaque formation. Photomicrographs show representative examples of the CMV-GFP infected cells at 2 and 12 days post infection (2 dpi and 12 dpi, respectively). b. Average plaques counted in 4 separate low magnification fields for each well at 14 dpi. […] As receptor levels return to normal (12 dpi), few infected (green fluorescent) cells were detected in the PDGFRα siRNA treated cultures (a, lower right panel), without formation of plaques. Plaque formation assays were repeated twice. Average counts (n=12)±SD are shown.
Plaque Formation Assays. Plaque formation was assayed. Confluent HEL cells in 6 well cluster plates were incubated with Towne-GFP (MOI of 1, 1 hr) in 0.5 ml growth media. Cells were washed and returned to 37° C. (in complete growth media). 24 h later supernatant was harvested and used to infect naïve HEL cultures which were monitored for plaque formation for 6-14 days. […] At day 14, plaques in ten low magnification fields/condition were counted (each experimental condition was tested in 6 independent wells).

HCMV [2] = experiment: HCMV IE1 / viral gene expression, western blot of infected cells
Description: (A) pp65 immunofluorescence after HCMV treatment (1 h, 4° C.) followed by shifting to 37° C. for indicated times. Rows represent (top to bottom): HEL, PDGFRα null fibroblasts, parental fibroblasts, null fibroblasts overexpressing hPDGFRα, HEL transfected with control, or PDGFRα siRNA. Nuclei were stained with DAPI. (B) Average±S.D. pp65 positive/100 cells counted in triplicate from (A). (C) Mock or HCMV infected cells were analyzed by western blotting with the indicated antibodies. Lanes 1-4 indicate HEL, 325S, PDGFRα null and PDGFRα null over-expressing hPDGFRα, respectively. (D) HEL transfected with control or PDGFRα siRNA were mock (lanes 1) or HCMV-treated (lanes 2) and subjected to western blots with indicated antibodies. (E) Western blot of HEL and U87 lysates after infection with mock (lanes 1), HCMV (lanes 2), or HCMV pretreated with IMC-3G3 (10 μg/ml, 12 h, lanes 3) or Gleevec (100 nM, 1 h, lanes 4). […] 6 dpi, supernatants were used to infect naïve HEL cells, followed by IE1 immunostaining and quantification (secondary infection). […]
HUVEC cells were pre-treated with IMC-3G3 (10 μg/ml, Imclone, 12 h), or Gleevec (100 nM, 1 h) prior to HCMV or mock infection. 12 hours post-infection, cell lysates were analyzed by western blot for the presence of IE1 gene product. […]
(§1) Western Blot, Immunoprecipitation, and Immunofluorescence analyses. […] Cell lysates were analyzed by SDS-PAGE. […]

HCMV [3] = experiment: Viral attachment and internalization assay (pp65 immunofluorescence); conditions: HEL
Description: (A) HEL cells were pretreated with PBS (20 min 4° C.), IMC-3G3 (2 h, 37° C., 10 μg/ml), or PDGF-AA (20 min, 4° C., 10 ng/ml) prior to infection with HCMV (MOI of 1, 4° C., 1 h). Cells were returned to 37° C. for 30 minutes, and processed for pp65^HCMV and PDGFRα double immunofluorescence. […] All conditions were assayed in triplicate cultures. One hundred cells in 4 low magnification fields were counted. Bars represent SD.
Viral Attachment and Internalization Assays. Mouse fibroblasts and HEL cells (72 hours following siRNA transfections) were incubated with HCMV (MOI of 0.5) or mock treated for 1 hour at 4° C., after which cells were returned to 37° C. for 15, 30, or 60 min. Cells were fixed using methanol (20 min) and processed for pp65 immunofluorescence. Four low power fields were counted for each condition and pp65 positive were recorded for each 100 cells. Internalization assays were repeated twice.

HCMV [4] = experiment: IE1 immunofluorescence of HCMV infected HEL cells
Description: HEL cells were transfected with PDGFRα siRNA (smart pool, Dharmacon) or non-targeting control siRNA (Dharmacon) for 48-60 hours when maximum protein knockdown is achieved (panels a and b. Also see FIG. 3d). Cells were then infected with Towne, AD169, TR, or CMV-GFP strains of HCMV for 1 hour, washed and returned to 37° C. in complete growth media. Supernatants obtained from these cultures were used in subsequent assays measuring production of infectious virus as described below. […] Cultures infected with supernatants from GFP-CMV treated cells were monitored daily under the fluorescence microscope. Over 40% of the control siRNA treated cells expressed CMV-GFP 1 day post infection (c, 1 dpi) and this number increased to 100% by day 6 (c, 6 dpi). Note the appearance of “plaques”-like groups of cells in control siRNA transfected cells (c, 3 and 6 dpi). […]
Measurements of Infectious Virus Production. […] A duplicate set of cultures was analyzed by immunofluorescence at 12 hours post infection (hpi) to assess percent of IE1 positive cells, as a measure of “primary infection”. […] 12 hpi cells were stained for IE1 and IE1 positive cells were counted amongst a total of 100 cells/low magnification microscopic field, 4 fields/condition. […] Where indicated, CMV-GFP infected cells were monitored daily under fluorescence microscope. […]

HCMV [5] = experiment: Measurements of infectious virus production; conditions: for infectious virus production (secondary infection): supernatants of siRNA treated HEL harvested 6 dpi used to infect naïve HEL, IE1 staining
Description: HEL cells were transfected with PDGFRα siRNA (smart pool, Dharmacon) or non-targeting control siRNA (Dharmacon) for 48-60 hours when maximum protein knockdown is achieved (panels a and b. Also see FIG. 3d). Cells were then infected with Towne, AD169, TR, or CMV-GFP strains of HCMV for 1 hour, washed and returned to 37° C. in complete growth media. Supernatants obtained from these cultures were used in subsequent assays measuring production of infectious virus as described below. One set of cultures (panels a and b) were used 12 hours post-infection (12 hpi) to measure the expression level of PDGFRα and IE1 by immunofluorescence. […] Cultures infected with supernatants from GFP-CMV treated cells were monitored daily under the fluorescence microscope. Over 40% of the control siRNA treated cells expressed CMV-GFP 1 day post infection (c, 1 dpi) and this number increased to 100% by day 6 (c, 6 dpi). Note the appearance of “plaques”-like groups of cells in control siRNA transfected cells (c, 3 and 6 dpi). […] To measure infectious virus production, supernatants from both control and PDGFRα siRNA treated cultures were harvested at 6 dpi and used to infect naïve HEL cells (secondary infection). […] These experiments were repeated twice.
Measurements of Infectious Virus Production. HEL cells (where indicated were treated with siRNA) were infected with HCMV Towne or CMV-GFP for 1 h, washed and grown for 6 days at 37° C. A duplicate set of cultures was analyzed by immunofluorescence at 12 hours post infection (hpi) to assess percent of IE1 positive cells, as a measure of “primary infection”. Six days post infection supernatant from these cells were centrifuged to exclude cell debris and used to infect naïve HEL cultures as described above. 12 hpi cells were stained for IE1 and IE1 positive cells were counted amongst a total of 100 cells/low magnification microscopic field, 4 fields/condition. These counts were used to determine the level of “secondary infection”—i.e., infectious virus production from the primary infected cells. Where indicated, CMV-GFP infected cells were monitored daily under fluorescence microscope. Each condition was assayed in triplicate.

HCMV [6] = experiment: HCMV IE1 / viral gene expression, western blot of infected cells; conditions: HEL; p110α knockdown vs non-targeting siRNA
HCMV [7] = experiment: HCMV pp65 western blot in HEL cells; conditions: siRNA 48 h prior to HCMV MOI of 1, western blot 2 h post-infection, indicates viral entry not inhibited
Description: HEL cells were transfected with siRNA against the PI3K p110α catalytic subunit (a mixture of 4 RNAi oligos, “smart pool” from Dharmacon) or non-targeting, control siRNA (Dharmacon) for 48 h prior to infection with HCMV (MOI of 1) for 1 hour. Cells were washed and cultured for 2 h-6 days. a. […] The mean number of IE1 positive cells is reduced by ˜50% in the PI3 Kp110α knockdown cultures—panel c**, p<0.01. PI3K p110α knock down is also significant (b, left panels, red fluorescence). However, unlike cells that lack a functional PDGFRα, PI3K p110α knock down cells are capable of producing infectious virus as shown by IE1 staining of the secondary infected cultures (panel d). A 10% decrease in infectious virus production in the cells treated with p110α siRNA is insignificant*, bars represent SD, […], panel c. Experiments were repeated twice, all conditions were assayed in triplicate. Similar results were obtained with both Towne-infected cultures (illustrated in this figure) and CMV-GFP.
Upper panel: HEL cells pretreated with anti-human PDGFRα antibody (10 ng/ml, for 30 min, clone AF-307-NA from R&D; lanes 1 and 4) or with AG 1295 (lane 3, […], from Calbiochem) were stimulated with Towne HCMV (lanes 2-4) or Mock infected (lane 1) for 10 min at 37 C. […]
as §1

| Molecule | plaque formation (HCMV [1]) | viral gene expression (IE1 and pp65) (HCMV [2]; HEL cells pre-treated with siRNA, western blot, compared to controls) | viral internalization (nuclear pp65) (HCMV [3]; siRNA knockdown, 60 min after shifting to 37° C., vs non-targeting control siRNA, p<0.001) | IE1 gene expression (primary infection) (HCMV [4]; HEL transfected with siRNA 48-60 h, 12 hpi, vs control siRNA) | CMV-GFP expression (HCMV [5]; siRNA treated HEL cells monitored daily under fluorescence microscope, 1-6 dpi) | infectious virus production (secondary infection) (HCMV [5]) | viral gene expression (HCMV [6]) | IE1 expression (HCMV [2]; HEL, siRNA 48 h prior to HCMV MOI of 1, western blot 2 h post-infection) | pp65 HCMV expression (HCMV [7]) | viral entry (HCMV [3]; p110α knockdown) | reduction of mean number of IE1 positive cells (HCMV [4]; HEL, p110α knockdown cultures, p<0.01) | decrease in infectious virus production (HCMV [5]; HEL treated with p110α siRNA, secondary infection, insignificant) |
| --- | --- | --- | --- | --- | --- | --- | --- | --- | --- | --- | --- | --- |
| B1 | completely blocked; also recorded: No plaques were formed | undetectable | near complete blockade | Near complete inhibition; also recorded: significantly inhibited | did not express CMV-GFP | Near complete inhibition; also recorded: did not produce any infectious virus |  |  |  |  |  |  |
| B2 |  |  |  |  |  | lower levels than controls | delay | inhibited | unchanged | allowed | ~50% | 10% |
